Measured values reported in the supplement of paper PMC11316812.
± gives the standard deviation of the averaged measurements.

How the values were obtained:
[1] = test system: hTERT-HMEC; assay: percentage of EdU-negative (G0-arrested) nuclei per well, 72 h; higher = more G0 arrest; conditions: reference: sequence is the full UniProt precursor, the tested protein was the secreted form or ectodomain
[2] = test system: MCF7; assay: as above; conditions: reference: sequence is the full UniProt precursor, the tested protein was the secreted form or ectodomain
[3] = protein concentration 0.03125 µM
[4] = protein concentration 0.3125 µM
[5] = protein concentration 0.0185 µM
[6] = protein concentration 0.0225 µM
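Further: secreted proteins added to cultured cells, EdU pulse at the end, nuclei found by Hoechst imaging, EdU status from nuclear versus surrounding ring intensity ratio, PBS as neutral control.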

Row | Sequence | percentage of EdU-negative [1, 6] [%] | percentage of EdU-negative ([1]; protein concentration 0.225 µM) [%] | percentage of EdU-negative [2, 6] [%] | percentage of EdU-negative ([2]; protein concentration 0.225 µM) [%] | also measured
1 | MPGIKRILTVTILALCLPSPGNAQAQCTNGFDLDRQSGQCLDIDECRTIPEACRGDMMCVNQNGGYLCIPRTNPVYRGPYSNPYSTPYSGPYPAAAPPLSAPNYPTISRPLICRFGYQMDESNQCVDVDECATDSHQCNPTQICINTEGGYTCSCTDGYWLLEGQCLDIDECRYGYCQQLCANVPGSYSCTCNPGFTLNEDGRSCQDVNECATENPCVQTCVNTYGSFICRCDPGYELEEDGVHCSDMDECSFSEFLCQHECVNQPGTYFCSCPPGYILLDDNRSCQDINECEHRNHTCNLQQTCYNLQGGFKCIDPIRCEEPYLRISDNRCMCPAENPGCRDQPFTILYRDMDVVSGRSVPADIFQMQATTRYPGAYYIFQIKSGNEGREFYMRQTGPISATLVMTRPIKGPREIQLDLEMITVNTVINFRGSSVIRLRIYVSQYPF [Q9UBX5] | – | – | – | – | percentage of EdU-negative [1, 3]: 4.99 ± 0.79%; percentage of EdU-negative [1, 4]: 6.25 ± 1.1%; percentage of EdU-negative [2, 3]: 27.1 ± 1%; percentage of EdU-negative [2, 4]: 26.6 ± 2%
2 | MAREMTILGSAVLTLLLAGYLAQQYLPLPTPKVIGIDLGTTYCSVGVFFPGTGKVKVIPDENGHISIPSMVSFTDNDVYVGYESVELADSNPQNTIYDAKRFIGKIFTAEELEAEIGRYPFKVLNKNGMVEFSVTSNETITVSPEYVGSRLLLKLKEMAEAYLGMPVANAVISVPAEFDLKQRNSTIEAANLAGLKILRVINEPTAAAMAYGLHKADVFHVLVIDLGGGTLDVSLLNKQGGMFLTRAMSGNNKLGGQDFNQRLLQYLYKQIYQTYGFVPSRKEEIHRLRQAVEMVKLNLTLHQSAQLSVLLTVEEQDRKEPHSSDTELPKDKLSSADDHRVNSGFGRGLSDKKSGESQVLFETEISRKLFDTLNEDLFQKILVPIQQVLKEGHLEKTEIDEVVLVGGSTRIPRIRQVIQEFFGKDPNTSVDPDLAVVTGVAIQAGIDGGSWPLQVSALEIPNKHLQKTNFN | – | – | – | – | percentage of EdU-negative [1, 5]: 4.53 ± 0.31%; percentage of EdU-negative ([1]; protein concentration 0.185 µM): 5.54 ± 0.38%; percentage of EdU-negative [2, 5]: 25 ± 2%; percentage of EdU-negative ([2]; protein concentration 0.185 µM): 25.9 ± 0.78%
3 | MPKGRQKVPHLDAPLGLPTCLWLELAGLFLLVPWVMGLAGTGGPDGQGTGGPSWAVHLESLEGDGEEETLEQQADALAQAAGLVNAGRIGELQGHYLFVQPAGHRPALEVEAIRQQVEAVLAGHEAVRWHSEQRLLRRAKRSVHFNDPKYPQQWHLNNRRSPGRDINVTGVWERNVTGRGVTVVVVDDGVEHTIQDIAPNYSPEGSYDLNSNDPDPMPHPDVENGNHHGTRCAGEIAAVPNNSFCAVGVAYGSRIAGIRVLDGPLTDSMEAVAFNKHYQINDIYSCSWGPDDDGKTVDGPHQLGKAALQHGVIAGRQGFGSIFVVASGNGGQHNDNCNYDGYANSIYTVTIGAVDEEGRMPFYAEECASMLAVTFSGGDKMLRSIVTTDWDLQKGTGCTEGHTGTSAAAPLAAGMIALMLQVRPCLTWRDVQHIIVFTATRYEDRRAEWVTNEAGFSHSHQHGFGLLNAWRLVNAAKIWTSVPYLASYVSPVLKENKAIPQSPRSLEVLWNVSRMDLEMSGLKTLEHVAVTVSITHPRRGSLELKLFCPSGMMSLIGAPRSMDSDPNGFNDWTFSTVRCWGERARGTYRLVIRDVGDESFQVGILRQWQLTLYGSVWSAVDIRDRQRLLESAMSGKYLHDDFALPCPPGLKIPEEDGYTITPNTLKTLVLVGCFTVFWTVYYMLEVYLSQRNVASNQVCRSGPCHWPHRSRKAKEEGTELESVPLCSSKDPDEVETESRGPPTTSDLLAPDLLEQGDWSLSQNKSALDCPHQHLDVPHGKEEQIC | 4.85 ± 0.1 | 5.83 ± 0.0087 | 25.2 ± 2.4 | 25.9 ± 0.42 | –
4 | MKYLRHRRPNATLILAIGAFTLLLFSLLVSPPTCKVQEQPPAIPEALAWPTPPTRPAPAPCHANTSMVTHPDFATQPQHVQNFLLYRHCRHFPLLQDVPPSKCAQPVFLLLVIKSSPSNYVRRELLRRTWGRERKVRGLQLRLLFLVGTASNPHEARKVNRLLELEAQTHGDILQWDFHDSFFNLTLKQVLFLQWQETRCANASFVLNGDDDVFAHTDNMVFYLQDHDPGRHLFVGQLIQNVGPIRAFWSKYYVPEVVTQNERYPPYCGGGGFLLSRFTAAALRRAAHVLDIFPIDDVFLGMCLELEGLKPASHSGIRTSGVRAPSQRLSSFDPCFYRDLLLVHRFLPYEMLLMWDALNQPNLTCGNQTQIY [Q9Y2A9] | 4.326 ± 0.034 | 7.879 ± 0.065 | 25.7 ± 2 | 30.2 ± 0.85 | –
5 | MVTLRKRTLKVLTFLVLFIFLTSFFLNYSHTMVATTWFPKQMVLELSENLKRLIKHRPCTCTHCIGQRKLSAWFDERFNQTMQPLLTAQNALLEDDTYRWWLRLQREKKPNNLNDTIKELFRVVPGNVDPMLEKRSVGCRRCAVVGNSGNLRESSYGPEIDSHDFVLRMNKAPTAGFEADVGTKTTHHLVYPESFRELGDNVSMILVPFKTIDLEWVVSAITTGTISHTYIPVPAKIRVKQDKILIYHPAFIKYVFDNWLQGHGRYPSTGILSVIFSMHVCDEVDLYGFGADSKGNWHHYWENNPSAGAFRKTGVHDADFESNVTATLASINKIRIFKGR | 5.6 ± 0.99 | 6.41 ± 0.73 | 24.2 ± 3.6 | 28.079 ± 0.0073 | –
6 | MPMASPQTLVLYLLVLAVTEAWGQEAVIPGCHLHPFNVTVRSDRQGTCQGSHVAQACVGHCESSAFPSRYSVLVASGYRHNITSVSQCCTISGLKKVKVQLQCVGSRREELEIFTARACQCDMCRLSRY [Q96T91] | 6.3 ± 1.5 | 4.45 ± 1.1 | 24.4 ± 0.81 | 22 ± 2.1 | –
